Assay results reported in paper PMC2835748.

Test system: GST-PTB (polypyrimidine tract binding protein)
Test: EMSA
Conditions: EMSA: 85 nM RNA, 50 mM HEPES pH 7.6, 25 mM KCl, 2.5 mM MgCl2, 1 mM DTT, 4% glycerol, 0.67 ug/ul yeast tRNA, 10 min at 30 C; 4% native gel with 5% glycerol

| Substance | binding signal (relative to 1-245) | binding signal (relative affinity (reference)) |
| --- | --- | --- |
| FCV gRNA 1-202 WT | 1 |  |
| FCV gRNA 1-245 |  | 1 |
